Experimental data published in paper PMC5717063.

Key:
[1] = target: mammalian wild-type HSP60 purified from porcine liver (porcine); assay: transmission electron microscopy; HSP60 alone with GTP; side views classified, over 100 molecules counted
[2] = target: mammalian wild-type HSP60 purified from porcine liver (porcine); assay: transmission electron microscopy; HSP60 alone with ATP; side views classified, over 100 molecules counted
[3] = target: mammalian wild-type HSP60 purified from porcine liver (porcine); assay: transmission electron microscopy; HSP60 alone, without nucleotide (Figure S1A)
[4] = target: mammalian wild-type HSP60 purified from porcine liver (porcine); assay: transmission electron microscopy; HSP60 with HSP10 and ATP; side views classified, over 100 molecules counted
[5] = target: mammalian wild-type HSP60 purified from porcine liver (porcine)

Row | percent of HSP60 as double-ring [1] [%] | percent of HSP60 as double-ring (HSP60 14) [2] [%] | stoichiometry N [2] | stoichiometry N [3] | percent of HSP60 in double-ring structures [4] [%] | refolding yield of chemically denatured rhodanese by HSP60/HSP10 in the presence of GTP (recovery of enzymatic activity, 60 min) [5] [%] | Substance
1 | 20 | 40 | 14 | 7 | 70 |  | mammalian wild-type HSP60 purified from porcine liver (natural protein)
2 |  |  |  |  |  | 40 | mammalian wild-type HSP10 purified from porcine liver (from UniProt F1SMZ6 1-102) (natural protein)
